The record followed here is article PMC8005358 (Science translational medicine, 2019).

The series concerns the molecule itself. The series is described as follows: SDS-PAGE in reducing and non-reducing conditions.

B1: recombinant human erythroferrone variant with a VPFQ insertion (ERFE^VPFQ) (natural protein, UniProt Q4G0M1 29-354, looked up)
chain: SPEPGAPSRSRARREPPPGNELPRGPGESRAGPAARPPEPTAERAHSVDPRDAWMLFVRQSDKGVNGKKRSRGKAKKLKVPFQFGLPGPPGPPGPQGPPGPIIPPEALLKEFQLLLKGAVRQRERAEPEPCTCGPAGPVAASLAPVSATAGEDDDDVVGDVLALLAAPLAPGPRAPRVEAAFLCRLRRDALVERRALHELGVYYLPDAEGAFRRGPGLNLTSGQYRAPVAGFYALAATLHVALGEPPRRGPPRPRDHLRLLICIQSRCQRNASLEAIMGLESSSELFTISVNGVLYLQMGQWTSVFLDNASGCSLTVRSGSHFSAVLLGV
B1: the stoichiometry N (in general, the number of molecules, sites or subunits per partner or assembly) was 3.

B2: recombinant human erythroferrone, wild type (ERFE^WT) (natural protein, UniProt Q4G0M1 29-354, looked up)
chain: SPEPGAPSRSRARREPPPGNELPRGPGESRAGPAARPPEPTAERAHSVDPRDAWMLFVRQSDKGVNGKKRSRGKAKKLKFGLPGPPGPPGPQGPPGPIIPPEALLKEFQLLLKGAVRQRERAEPEPCTCGPAGPVAASLAPVSATAGEDDDDVVGDVLALLAAPLAPGPRAPRVEAAFLCRLRRDALVERRALHELGVYYLPDAEGAFRRGPGLNLTSGQYRAPVAGFYALAATLHVALGEPPRRGPPRPRDHLRLLICIQSRCQRNASLEAIMGLESSSELFTISVNGVLYLQMGQWTSVFLDNASGCSLTVRSGSHFSAVLLGV
With B2, the “stoichiometry N” value is 3.
